For one substance, Kd results are on record in article PMC6711944.

This test concerns the target NS1B-NTR (1-103), N-terminal region of the influenza B virus NS1 protein (influenza B virus) (UniProt P03502). Description: ITC; about 0.5 mM ISG15 injected into 250 ul of 0.05 mM NS1B-NTR in the cell, 20 aliquots of 2 ul; 25 °C; 10 mM HEPES-sodium, 500 mM NaCl, pH 7.2; MicroCal iTC200; 'one set of sites' fitting model. (Isothermal titration calorimetry measures the heat released or taken up as one component is titrated into another.)

In the case of cISG15-K82A-N83A (natural protein), the Kd (commonly the constant that tells how readily two partners part at equilibrium) came out at 12 µM.
